Assay results from patent US20220177587A1, “METHODS AND USES OF VARIANT CD80 FUSION PROTEINS AND RELATED CONSTRUCTS” (Alpine Immune Sciences, Inc., priority 2018, published 2022).
Substitutions are numbered along the chain they refer to. Names may count otherwise.

B1: T13R/Q33R/E35D/M38I/M47L/V68M (protein, UniProt P33681 35-288, looked up, variant T13R Q33R E35D M38I M47L V68M)
T-lymphocyte activation …: VIHVTKEVKEVARLSCGHNVSVEELAQTRIYWRKDKKIVLTMMSGDLNIWPEYKNRTIFDITNNLSIMILALRPSDEGTYECVVLKYEKDAFKREHLAEVTLSVKADFPTPSISDFEIPTSNIRRIICSTSGGFPEPHLSWLENGEELNAINTTVSQDPETELYAVSSKLDFNMTTNHSFMCLIKYGHLRVNQTFNWNTTKQEHFPDNLLPSWAITLISVNGIFVICCLTYCFAPRCRERRRNERLRRESVRPV
B2: T13R/Q33R/E35D/M38I/M47L/V68M/E95V/L97Q (protein, UniProt P33681 35-288, looked up, variant T13R Q33R E35D M38I M47L V68M E95V L97Q)
T-lymphocyte activation …: B1 T-lymphocyte activation … with E95V, L97Q
B3: E24D/E35D/M47L/V68M/E95V/L97Q (protein, UniProt P33681 35-288, looked up, variant E24D E35D M47L V68M E95V L97Q)
T-lymphocyte activation …: B1 T-lymphocyte activation … with R13T, E24D, R33Q, I38M, E95V, L97Q
B4: T13R/Q33R/E35D/M38I/M47L/V68M/L85M (protein, UniProt P33681 35-288, looked up, variant T13R Q33R E35D M38I M47L V68M L85M)
T-lymphocyte activation …: B1 T-lymphocyte activation … with L85M
B5: T13R/Q33R/E35D/M47L/V68M (protein)
chain: VIHVTKEVKEVARLSCGHNVSVEELAQTRIYWRKDKKMVLTMMSGDLNIWPEYKNRTIFDITNNLSIMILALRPSDEGTYECVVLKYEKDAFKREHLAEVTLSVKADFPTPSISDFETPTSNIRRIICSTSGGFPEPHLSWLENGEELNAINTTVSQDPETELYAVSSKLDFNMTTNHSFMCLIKYGHLRVNQTFNWNTTKQEHFPDN
modifications: CD80 v381 ECD
B6: T13R/Q33R/E35D/M47L/V68M/L85M (protein)
chain: B5 chain with L85M
modifications: CD80 v382 ECD
B7: M47L (protein)
chain: VIHVTKEVKEVATLSCGHNVSVEELAQTRIYWQKEKKMVLTMMSGDLNIWPEYKNRTIFDITNNLSIVILALRPSDEGTYECVVLKYEKDAFKREHLAEVTLSVKAD
B8: D46V/L85Q (protein)
chain: B7 chain with D46V, L47M, L85Q
B9: E35D/V68M/L85Q (protein)
chain: B7 chain with E35D, L47M, V68M, L85Q
B10: E35D/M47L/V68M (protein)
chain: B7 chain with E35D, V68M
B11: D46V/V68M (protein)
chain: B7 chain with D46V, L47M, V68M

target: huPD-L1 (Homo sapiens, UniProt Q9NZQ7); experiment: Flow binding to CHO cells stably expressing PD-L1; set-up: huCTLA4 and huPD-L1, full-length mammalian surface expression constructs were generated; expressed in transfected cells; host or cells: CHO cells, lentiviral transduction, sorted to >98% purity; settings: Table E11; 33.3 nM; listed as WT CD80 ECD-Fc = 1.0
In short: (§1)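 Binding EC50 and PE mean fluorescence intensity derived by flow cytometry using PE-labelled anti-human Fc secondary. Target cells were CTLA4- or PD-L1-transfected CHO lines and CD28-expressing Jurkat/IL2 reporter cells, stained with fusion proteins on ice for 45 min following BSA blocking.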

Sequence of huPD-L1 (Q9NZQ7 19-290): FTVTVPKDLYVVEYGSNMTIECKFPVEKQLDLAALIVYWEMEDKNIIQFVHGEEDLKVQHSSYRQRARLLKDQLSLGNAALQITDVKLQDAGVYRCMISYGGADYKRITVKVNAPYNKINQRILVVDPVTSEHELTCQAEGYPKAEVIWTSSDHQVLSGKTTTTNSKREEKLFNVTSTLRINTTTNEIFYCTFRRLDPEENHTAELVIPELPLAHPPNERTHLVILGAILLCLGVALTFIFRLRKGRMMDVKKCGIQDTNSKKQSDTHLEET

| Molecule | PD-L1 Fold change to WT CD80 |
| --- | --- |
| B1 | 87.0 |
| B2 | 372.0 |
| B3 | 362.1 |
| B4 | 21.5 |
| B5 | 285.0 |
| B6 | 367.7 |

same assay, conditions: Table E11; CHO cells stably expressing PD-L1; 33.3 nM

| Molecule | PD-L1 MFI at 33.3 nM |
| --- | --- |
| B1 | 4482 |
| B2 | 19157 |
| B3 | 18649 |
| B4 | 1106 |
| B5 | 14680 |
| B6 | 18938 |

same assay, conditions: Table E11; MFI at 33.3 nM

| Molecule | Ratio of PDL1:CD28 |
| --- | --- |
| B1 | 324.8 |
| B2 | 17.2 |
| B3 | 1268.6 |
| B4 | 77.9 |
| B5 | 1041.1 |
| B6 | 169.1 |

same assay, conditions: Table E19; CHO cells stably expressing PD-L1; 33.3 nM

| Molecule | PD-L1 MFI at 33.3 nM |
| --- | --- |
| B7 | 1895 |
| B8 | 2197 |
| B9 | 5971 |
| B10 | 27896 |
| B11 | 2271 |

same assay, conditions: Table E19; MFI at 33.3 nM relative to WT CD80 ECD-Fc (Abcam)

| Molecule | PD-L1 Fold change to WT CD80 |
| --- | --- |
| B7 | 14.8 fold |
| B8 | 17.2 fold |
| B9 | 46.6 fold |
| B10 | 217.9 fold |
| B11 | 17.7 fold |

same assay, conditions: Table E19; ratio of MFI at 33.3 nM

| Molecule | Ratio of PDL1:CD28 |
| --- | --- |
| B7 | 6.1 |
| B8 | 16.8 |
| B9 | 78.4 |
| B10 | 22.4 |
| B11 | 4.1 |

target: T1, CD28 (Homo sapiens, UniProt P10747); experiment: Flow binding to Jurkat/IL2 reporter cells (CD28); set-up: host or cells: Jurkat cells expressing an IL-2-luciferase reporter; settings: Table E11; 33.3 nM; listed as WT CD80 ECD-Fc = 1.0
In short: as §1

| Molecule | CD28 Fold change to WT CD80 |
| --- | --- |
| B1 | 0.4 |
| B2 | 35.4 |
| B3 | 0.5 |
| B4 | 0.5 |
| B5 | 0.4 |
| B6 | 3.6 |

same assay, conditions: Table E11; Jurkats (CD28); 33.3 nM

| Molecule | CD28 MFI at 33.3 nM |
| --- | --- |
| B1 | 13.8 |
| B2 | 1111 |
| B3 | 15 |
| B4 | 14.2 |
| B5 | 14.1 |
| B6 | 112 |

same assay, conditions: Table E19; Jurkats (CD28); 33.3 nM

| Molecule | CD28 MFI at 33.3 nM |
| --- | --- |
| B7 | 309 |
| B8 | 131 |
| B9 | 76.2 |
| B10 | 1243 |
| B11 | 556 |

same assay, conditions: Table E19; MFI at 33.3 nM relative to WT CD80 ECD-Fc (Abcam)

| Molecule | CD28 Fold change to WT CD80 |
| --- | --- |
| B7 | 0.4 fold |
| B8 | 0.2 fold |
| B9 | 0.1 fold |
| B10 | 1.8 fold |
| B11 | 0.8 fold |

target: huCTLA4 (Homo sapiens, UniProt P16410); experiment: Flow binding to CHO cells stably expressing CTLA4; set-up: huCTLA4 and huPD-L1, full-length mammalian surface expression constructs were generated; expressed in transfected cells; host or cells: CHO cells, lentiviral transduction, sorted to >98% purity; settings: Table E11; 33.3 nM; listed as WT CD80 ECD-Fc = 1.0
In short: as §1

Sequence of huCTLA4 (P16410 36-223): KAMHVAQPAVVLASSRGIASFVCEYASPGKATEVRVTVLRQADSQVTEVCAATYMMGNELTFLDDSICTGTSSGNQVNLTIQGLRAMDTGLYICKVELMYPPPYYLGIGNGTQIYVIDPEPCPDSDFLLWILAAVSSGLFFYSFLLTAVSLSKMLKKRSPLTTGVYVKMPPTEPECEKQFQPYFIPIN

| Molecule | CTLA4 Fold change to WT CD80 |
| --- | --- |
| B1 | 0.1 |
| B2 | 11.8 |
| B3 | 8.8 |
| B4 | 12.6 |
| B5 | 11.8 |
| B6 | 7.7 |

same assay, conditions: Table E11; CHO cells stably expressing CTLA4; 33.3 nM

| Molecule | CTLA4 MFI at 33.3 nM |
| --- | --- |
| B1 | 193 |
| B2 | 20652 |
| B3 | 15505 |
| B4 | 22011 |
| B5 | 20738 |
| B6 | 13438 |

same assay, conditions: Table E19; CHO cells stably expressing CTLA4; 33.3 nM

| Molecule | CTLA4 MFI at 33.3 nM |
| --- | --- |
| B7 | 30774 |
| B8 | 41896 |
| B9 | 42761 |
| B10 | 28603 |
| B11 | 5334 |

same assay, conditions: Table E19; MFI at 33.3 nM relative to WT CD80 ECD-Fc (Abcam)

| Molecule | CTLA4 Fold change to WT CD80 |
| --- | --- |
| B7 | 0.8 fold |
| B8 | 1.0 fold |
| B9 | 1.1 fold |
| B10 | 0.7 fold |
| B11 | 0.1 fold |

target: T1, CD28; experiment: Jurkat/IL2 + CHO/OKT3 +/- PD-L1 reporter assay: PD-L1-dependent CD28 costimulation; assay type: cell-based; set-up: host or cells: Jurkat cells expressing an IL-2-luciferase reporter; settings: Table E13; Jurkat/IL2 + CHO/OKT3/PD-L1; 5.0 nM
In short: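 Readout is relative luminescence from lysed cocultures: test protein given 15 min at room temperature to Jurkat cells before adding CHO artificial APCs displaying OKT3 alone or OKT3 plus PD-L1, then 5 h at 37 °C, 5% CO2.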

| Molecule | Fold Increase over WT CD80-IgV-Fe | Relative Luciferase Units (RLU), CD80 Cone 5.0 nM |
| --- | --- | --- |
| B1 | 0.4 | 152 RLU |
| B2 | 2.5 | 993 RLU |
| B3 | 2.7 | 1087 RLU |
| B4 | 0.4 | 153 RLU |
| B5 | 1.0 | 399 RLU |
| B6 | 2.9 | 1160 RLU |

same assay, conditions: Table E21; Jurkat/IL2 + CHO/OKT3/PD-L1; 5.0 nM

| Molecule | Fold Increase over WT CD80-IgV-Fe |
| --- | --- |
| B7 | 4.6 fold |
| B8 | 3.0 fold |
| B9 | 4.4 fold |
| B10 | 6.5 fold |
| B11 | 2.5 fold |

same assay, conditions: Table E21; Jurkat/IL2 + CHO/OKT3/PD-L1; CD80 Conc 5.0 nM

| Molecule | Relative Luciferase Units (RLU), CD80 Conc 5.0 nM |
| --- | --- |
| B7 | 530 RLU |
| B8 | 342 RLU |
| B9 | 511 RLU |
| B10 | 749 RLU |
| B11 | 292 RLU |
